2 substances from article PMC8590968 can be followed below.

The target of experiment [1] is Sambucus nigra lectin (Sambucus nigra). Put plainly: immunostaining of cells or tissue.
Experiment [2] deals with Maackia amurensis lectin II (Maackia amurensis). Put plainly: immunostaining of cells or tissue.

Sambucus nigra lectin (Sambucus nigra), sequence (Q41358 29-289 limits assumed, chain 1 of 2): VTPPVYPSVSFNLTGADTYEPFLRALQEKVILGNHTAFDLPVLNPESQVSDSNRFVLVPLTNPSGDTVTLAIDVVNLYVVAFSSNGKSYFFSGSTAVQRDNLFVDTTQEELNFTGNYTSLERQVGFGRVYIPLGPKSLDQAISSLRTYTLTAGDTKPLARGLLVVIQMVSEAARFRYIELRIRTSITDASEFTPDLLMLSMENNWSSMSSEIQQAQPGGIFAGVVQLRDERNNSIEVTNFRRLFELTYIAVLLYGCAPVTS
Sambucus nigra lectin (Sambucus nigra), sequence (Q41358 309-570 limits assumed, chain 2 of 2): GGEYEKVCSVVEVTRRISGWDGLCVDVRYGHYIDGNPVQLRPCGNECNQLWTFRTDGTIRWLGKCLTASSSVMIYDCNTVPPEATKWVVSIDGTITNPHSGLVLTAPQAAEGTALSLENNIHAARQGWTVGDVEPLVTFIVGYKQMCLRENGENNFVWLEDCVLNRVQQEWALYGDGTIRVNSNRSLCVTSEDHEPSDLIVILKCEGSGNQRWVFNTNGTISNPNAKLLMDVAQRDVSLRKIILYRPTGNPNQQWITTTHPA

The substance “desialylated bovine lactoferrin (natural protein)” returned a percent reduction of lectin bound to MDCK cells in experiment [1] of 60%.

For “native bovine lactoferrin (natural protein)”, the percent reduction of lectin bound to MDCK cells in experiment [2] worked out at 40%.
